Source: US7732178B2, “Laccase enzymes and their uses” (AB Enzymes Oy, priority 2004, dated 2010)
Values joined by “and” are separate entries in the source; they are usually repeats but may differ in a detail not shown here. Identical values can stand only once. Like-named read-outs stand apart in the source and are kept apart here.

What was measured:
[1] = target: T1, Thielavia arenaria ALKO4197 laccase TaLcc1, recombinant, SEQ ID NO: 39 (Canariomyces arenarius, UniProt F6N9E7); format: biochemical
T1 construct: plasmid pALK1342 (DSM 15484)
Protocol: (§1) On syringaldazin and DMP 40 mM MES buffer, pH 6 was used. All activity assays were carried out at 25° C. Kinetic parameters were estimated by a nonlinear regression curve fit. The values were compared to those of Melanocarpus albomyces MaL, laccase.

[2] = target: T2, Melanocarpus albomyces laccase (MaL) (Melanocarpus albomyces, UniProt Q70KY3); experiment: Kinetic parameters of MaL; format: biochemical
T2 sequence (Q70KY3 51-609): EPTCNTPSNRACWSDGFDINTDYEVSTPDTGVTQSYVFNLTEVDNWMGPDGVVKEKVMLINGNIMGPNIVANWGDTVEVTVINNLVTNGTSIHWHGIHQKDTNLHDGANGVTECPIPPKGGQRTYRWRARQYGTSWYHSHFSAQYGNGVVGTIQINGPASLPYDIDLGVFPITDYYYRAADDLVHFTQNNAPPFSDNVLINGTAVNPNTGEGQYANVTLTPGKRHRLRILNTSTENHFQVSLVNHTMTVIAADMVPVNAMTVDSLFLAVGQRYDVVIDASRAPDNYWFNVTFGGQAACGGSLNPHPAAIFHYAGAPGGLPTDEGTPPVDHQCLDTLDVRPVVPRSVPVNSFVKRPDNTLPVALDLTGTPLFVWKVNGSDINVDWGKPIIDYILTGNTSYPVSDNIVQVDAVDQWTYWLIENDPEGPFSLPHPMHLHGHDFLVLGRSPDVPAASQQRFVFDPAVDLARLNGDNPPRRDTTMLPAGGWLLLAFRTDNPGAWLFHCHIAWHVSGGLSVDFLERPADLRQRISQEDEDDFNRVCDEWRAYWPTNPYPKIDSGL
Protocol: as §1

[3] = tested on: Thielavia arenaria ALKO4197 laccase TaLcc4, recombinant, SEQ ID NO: 45; experiment: Kinetic parameters of TaLcc4; format: biochemical
Protocol: as §1

[4] = tested on: Thielavia arenaria ALKO4197 laccase TaLcc3, recombinant, SEQ ID NO: 43; experiment: Kinetic parameters of TaLcc3; format: biochemical
Protocol: as §1

[5] = tested on: wild type Chaetomium (CtL) laccase; format: biochemical, Chaetomium thermophilum; conditions: pH 5
[6] = Stain removal, grass soiling; design: key to Grass L* / Grass a* / Grass b*: CIE L*a*b* color coordinates from reflectance; conditions: for Grass L* / Grass a* / Grass b*: 60 min, pH 6
Protocol: (§2) Laccases CtLcc1, TaLcc2, TaLcc4 and Denilite II Base (Example 7) were tested for their ability to remove stains. The following artificially soiled test cloths were used: grass soiling (Art.164, EMPA Testmaterialen, Germany), tea soiling (Art. 167, EMPA Testmaterialen, Germany). The fabric was cut in 5.8×5.8 cm swatches. Laccase treatments were performed in LP-2 Launder Ometer as follows. About 5 g of soiled fabrics were loaded into 1.2 liter containers containing 150 ml Mc Ilvaine's citrate phosphate buffer pH 6 and the containers were temperated. Enzyme with or without the mediator (methyl syringate, DeniLite II Assist, Novozymes) was added as laccase activity units (Example 7). Enzyme was dosed 200 nkat/g and the mediator 10 mg/g on the weight of fabric, except at 40° C. dosages of 20 nkat/g and 2 mg/g were also used. The Launder Ometer was run at 40, 50 or 60° C. and pH 6 for 60 min. After that the swatches were carefully rinsed under running water and in shake flasks containing warm water and dried in the air.
(§3) The stain removal effect was evaluated by measuring the colour as reflectance values using L*a*b* color space coordinates (Example 7). The colour of the swatches was measured before and after the laccase treatment.

[7] = Denim bleaching at different temperatures; design: key to After laccase treatment L* / After laccase treatment b* / Increase of L*: CIE L*a*b* colour coordinates (illuminant D65), reflectance; conditions: face side of denim; 30 min, 40° C., pH 6; enzyme 200 nkat/g, mediator 10 mg/g
Protocol: (§4) Lee Cooper jeans (MASI Company Oy, Finland) that were desized and treated with neutral ECOSTONE® cellulase were used as test material. Laccase treatments were performed in LP-2 Launder Ometer as follows. About 10 g of denim swatches (15×14 cm) were loaded into 1.2 liter containers containing 200 ml Mc Ilvaine's citrate phosphate buffer pH 5, 6 or 7 and the containers were temperated. Enzyme with or without the mediator (methyl syringate, DeniLite II Assist, Novozymes) was added as laccase activity units. Enzyme was dosed 200 nkat/g and the mediator 10 mg/g on the weight of fabric. […] The Launder Ometer was run at 50° C. for 30 min and after that the temperature in Launder was raised to 80° C. for 10 min. The swatches were carefully rinsed with warm water, dried half-dry in a tumbler and after that air dried.
(§5) The bleaching effect was evaluated by measuring the colour as reflectance values with the Minolta Chromameter CM 1000 (Minolta Co.) using L*a*b* color space coordinates (illuminant D65). The colour from both sides of the swatches was measured before and after the laccase treatment. Each measurement was the average of several measurements.
The test system and denim were as in Example 7, except that the conditions during the laccase and mediator treatment in Launder were 30 min, pH 6 and temperature 30-70° C. (DeniLite II Base also at 80° C.) and the enzyme was inactivated by alkaline treatment instead of raising the temperature in Launder as follows. After removing swatches from the containers they were soaked in warm water containing NaOH (pH 11.5) for 10 min and rinsed carefully with warm water. The swatches were dried half-dry in a tumbler and after that air dried. The bleaching effect was evaluated by measuring the colour as reflectance values as in Example 7.

[8] = Specific activity towards syringaldazine; format: biochemical; conditions: 25 mM MES buffer, pH 5.5
Protocol: (§6) Specific activities of the purified T. arenaria and C. thermophilum laccases were determined towards different laccase substrates.

[9] = Denim bleaching at different pH values; design: key to After laccase treatment L* / After laccase treatment b* / Increase of L*: CIE L*a*b* colour coordinates (illuminant D65), Minolta reflectance; conditions: face side of denim, 30 min, 50° C.
Protocol: as §4, §5

[10] = Specific activity towards ABTS; format: biochemical; conditions: 25 mM succinate buffer pH 4.5, 25° C.
Protocol: The activity assay was carried out in accordance with the method developed by Niku-Paavola et al. (1988). The sample was diluted with 0.025 M succinate buffer, pH 4.5. […] The activity is expressed as nano katals.
as §6

[11] = Isoelectric focusing (pI); format: physicochemical; conditions: pH range 3-9
Protocol: Molecular weight of the T. arenaria and C. thermophilum laccases were determined on SDS-PAGE according to Laemmli (1970) The gels used in the SDS-PAGE analysis were ready-made 12% Tris HCl gels (BioRad). Protein bands were visualized by staining with Coomassie Brilliant Blue (R 350; Pharmacia) and compared with molecular weight markers (Prestained Protein Marker Broad Range #7708S; New England BioLabs, Beverly, Mass.). The molecular weight of the both laccases was approximately 80 kDa. The isoelectric point of the laccases was determined with isoelectric focusing within the pH range of 3-9 (Pharmalyte IEF, Pharmacia) on a LKB 2117 Multiphor II Electrophoresis System (LKB Pharmacia, Bromma, Sweden) according to the manufacturer's instructions.
The purified recombinant Thielavia and Chaetomium laccases were characterized in terms of pH optimum, thermal stability, and pI as described in Example 2. The molecular weight was determined by MALDI-TOF mass spectrometry on a Ultraflex™ time-of-flight instrument (BrukerDaltonics, Germany) as previously described (Palonen et al., 2003). The redox-potentials of the T1 coppers of for CtLcc, and TaLcc2 laccases were determined by photometric copper titration in 0.1 M KH2PO4 (pH 6.0) as described by Xu et al. (1996) using the redox titrant couple K3Fe(CN)6/K4Fe(CN)6. The redox potential of TaLcc1 was determined with a combined Pt—AgCl/KCl microelectrode at pH 5.0 according to Sigoillot et al (2004). The characterization results are collected to Table 14.

[12] = Stain removal, tea soiling; design: key to Tea L* / Tea a* / Tea b*: CIE L*a*b* color coordinates from reflectance; conditions: 60 min, pH 6
Protocol: as §2, §3

[13] = Specific activity towards di-methoxy-phenol (DMP); format: biochemical; conditions: 25 mM MES buffer, pH 5.5
Protocol: as §6

[14] = Specific activity towards guaiacol; format: biochemical; conditions: 25 mM MES buffer, pH 5.5
Protocol: as §6

[15] = 25 mM succinate buffer pH 4.5, 25° C.
[16] = 40° C., enzyme 20 nkat/g + mediator 2 mg/g (Mediator only: 0 nkat/g)
[17] = 40° C., enzyme 200 nkat/g + mediator 10 mg/g (Mediator only: 0 nkat/g)
[18] = 40° C., enzyme 200 nkat/g, mediator 0 mg/g
[19] = 50° C., enzyme 200 nkat/g + mediator 10 mg/g (Mediator only: 0 nkat/g)
[20] = pH 5, enzyme 200 nkat/g without the mediator, or mediator 10 mg/g alone
[21] = pH 5, enzyme 200 nkat/g, mediator 10 mg/g
[22] = pH 6, enzyme 200 nkat/g without the mediator, or mediator 10 mg/g alone
[23] = pH 6, enzyme 200 nkat/g, mediator 10 mg/g
[24] = pH 7, enzyme 200 nkat/g without the mediator, or mediator 10 mg/g alone
[25] = pH 7, enzyme 200 nkat/g, mediator 10 mg/g

T1 sequence (F6N9E7 entry or part of it): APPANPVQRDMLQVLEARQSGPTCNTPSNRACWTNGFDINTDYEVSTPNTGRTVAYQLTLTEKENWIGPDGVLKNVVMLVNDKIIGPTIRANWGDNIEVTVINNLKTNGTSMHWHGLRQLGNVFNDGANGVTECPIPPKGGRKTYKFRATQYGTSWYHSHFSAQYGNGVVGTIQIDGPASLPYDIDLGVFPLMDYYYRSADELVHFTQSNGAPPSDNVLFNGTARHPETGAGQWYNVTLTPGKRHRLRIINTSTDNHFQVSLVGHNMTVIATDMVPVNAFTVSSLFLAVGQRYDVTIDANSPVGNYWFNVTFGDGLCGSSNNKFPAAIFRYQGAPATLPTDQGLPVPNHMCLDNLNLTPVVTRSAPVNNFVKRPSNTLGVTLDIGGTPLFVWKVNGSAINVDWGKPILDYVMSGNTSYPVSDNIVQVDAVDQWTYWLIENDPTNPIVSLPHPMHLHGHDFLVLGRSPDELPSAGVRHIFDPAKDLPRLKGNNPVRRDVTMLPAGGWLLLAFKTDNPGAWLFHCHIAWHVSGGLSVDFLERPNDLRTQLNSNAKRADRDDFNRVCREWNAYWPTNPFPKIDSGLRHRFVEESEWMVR

## CCn1c(=NN=c2sc3cc(S(=O)(=O)O)ccc3n2CC)sc2cc(S(=O)(=O)O)ccc21 [ABTS, 2,2′azinobis-3-ethylbenzthiazole-6-sulphonate]
[1]; pH 4.5
  Km: 75 µM
  kcat: 68.83 s⁻¹
[2]; pH 4.5
  kcat: 78.17 s⁻¹
[3]; [15]
  Km: 2470 µM
  kcat: 143.5 s⁻¹
[4]; [15]
  Km: 1040 µM
  kcat: 0.617 s⁻¹

## COc1cccc(OC)c1O [DMP, 2,6-dimethoxy phenol]
[1]; 40 mM MES buffer, pH 6, 25° C.
  Km: 17 µM
  kcat: 67.17 s⁻¹
[2]; 40 mM MES buffer, pH 6, 25° C.
  kcat: 69.33 s⁻¹
[3]; 40 mM MES buffer, pH 6, 25° C.
  Km: 1900 µM
  kcat: 26.5 s⁻¹
[4]; 40 mM MES buffer, pH 6, 25° C.
  Km: 14 µM
  kcat: 0.083 s⁻¹

## [F-].[Na+] [NaF]
[5]
  Inhibition (%) CtL: 40% and 70%

B1: TaLcc4: Thielavia arenaria ALKO 4197 laccase, SEQ ID NO: 45, produced in Trichoderma reesei (protein)
chain: MISRLLFTSSFTATLASALPGLLYAPHSSALLARSSCSGNTASTRSQWCDYSIDTDYTTEPVDTGVTREYWLELTDVTVSPDGVSRSAMAVNGSIPGPTIFADWGDTVVVHVTNSLSTSLNGTSIHWHGIRQNYTNQNDGVASITQCPLAVGESTTYTWKATQYGSSWYHSHFSLQAWEGVFGGIIINGPSTANYDEDLGMLFLNDWDHQTVDELYSSAETSGPPTLANGLINGTNVYGEDGDSSQTGTRLAVSFTSGTSYRMRLVNAAVDTHWKFSIGNHTMTVMAADLVPIEPYETTVLTIGMGQRYDIVVTADQADVADNFWMRAIPQSACSDNDSADNIRGIVYYGDSPGTPSTTGYDFEDACDDETANITPYISKTVSSAEWNDLETASVSRNSAGLFKWYLNSTTMLVDWAKPTLEMVTDNVTEYDSDDAIIELNEANQWVYMVVQTTLQVPHPIHLHGHDFFILAQGSGTYDSSTVTLKTDNPPRRDTAMLPSQGYLVMAWETDNPGVWLMHCHIGWHTSEGFALQFIERKSEIASIVSTSTMKDICTKWEEFQEEYSIEQEDSGV
modifications: Thielavia arenaria ALKO4197; (1)..(573) Deduced amino acid sequence of Thielavia arenaria ALKO4197 TaLcc4
[6]; 50° C.
  greenness reduced (grass): ca. 2 units
[6]; [16]
  Grass L*: 78.53
  Grass a*: −6.07
  Grass b*: 19.33
[6]; [17]
  Grass L*: 78.94
  Grass a*: −3.77
  Grass b*: 16.77
[6]; [18]
  Grass L*: 79.84
  Grass a*: −4.98
  Grass b*: 17.62
[6]; [19]
  Grass L*: 78.62
  Grass a*: −4.00
  Grass b*: 17.16
[7]
  After laccase treatment L*: 29.23
  After laccase treatment b*: −18.44
  Increase of L*: 0.12
[8]
  Specific activity on syringaldazin: 52 nkat/mg
[9]; [20]
  After laccase treatment L*: 29.40
  After laccase treatment b*: −18.70
  Increase of L*: −0.04
[9]; [21]
  After laccase treatment L*: 29.17
  After laccase treatment b*: −18.47
  Increase of L*: 1.01
[9]; [22]
  After laccase treatment L*: 27.68
  After laccase treatment b*: −18.76
  Increase of L*: 0.24
[9]; [23]
  After laccase treatment L*: 29.55
  After laccase treatment b*: −18.11
  Increase of L*: 1.35
[9]; [24]
  After laccase treatment L*: 29.29
  After laccase treatment b*: −18.89
  Increase of L*: 0.50
[9]; [25]
  After laccase treatment L*: 28.31
  After laccase treatment b*: −18.33
  Increase of L*: 0.47
[10]
  Specific activity on ABTS: 1000 nkat/mg
[11]
  pI: 3.0
[12]; [16]
  Tea L*: 75.09
  Tea a*: 5.73
  Tea b*: 22.08
[12]; [17]
  Tea L*: 74.56
  Tea a*: 5.58
  Tea b*: 23.55
[12]; [18]
  Tea L*: 76.74
  Tea a*: 5.05
  Tea b*: 21.67
[12]; [19]
  Tea L*: 75.13
  Tea a*: 5.19
  Tea b*: 22.44
[13]
  Specific activity on DMP: 110 nkat/mg
[14]
  Specific activity on guaiacol: 5 nkat/mg
